Key:
[1] = target: AnxA2 10x (AnxA2 A66E 6x with R36S, V53A, T54A, K328A in addition, alkylated at Cys-8) (human) (UniProt P07355); experiment: cross-linking; Ca2+/membrane sample: AnxA2 (60 ug) bound to LUVs (100 nm, POPC:DOPC:Chol:POPS 40:20:20:20, 100 ug) with 1 mM CaCl2 in HBS pH 7.4, 0.3 mM Biotin3xNHSX-Linker added after 30 min for 30 min; 10% SDS-PAGE, Coomassie; oligomer bands above the dimer position quantified against the monomer band
[2] = target: AnxA2 6x (AnxA2 A66E with K81A, E189K, R196S, K206A, K212S, E219K, alkylated at Cys-8) (human) (UniProt P07355); experiment: as above

| crosslinked oligomers, percent of wild type (% of wild type) [1] | crosslinked oligomers, percent of wild type (% of wild type) [2] | Substance |
| --- | --- | --- |
| 33 | – | AnxA2 10x (AnxA2 A66E 6x with R36S, V53A, T54A, K328A in addition, alkylated at Cys-8) (from UniProt P07355 21-339) (natural protein) |
| – | 48 | AnxA2 6x (AnxA2 A66E with K81A, E189K, R196S, K206A, K212S, E219K, alkylated at Cys-8) (from UniProt P07355 21-339) (natural protein) |
